Substitutions are numbered along the chain they refer to. One block for each binder: values may come before it.
Experiments:
[1] = molecular target: T1, human PD-L1 (hPD-L1) coated on ELISA wells, Example 7 (human, UniProt Q9NZQ7 19-238); assay: Blocking ELISA
[2] = molecular target: T1, human PD-L1 (hPD-L1) coated on ELISA …; assay: blocking ELISA (hPD1-Fc binding)
[3] = molecular target: T1, human PD-L1 (hPD-L1) coated on ELISA …; assay: huPD1-Fc blocking ELISA

T1 sequence (Q9NZQ7 19-238): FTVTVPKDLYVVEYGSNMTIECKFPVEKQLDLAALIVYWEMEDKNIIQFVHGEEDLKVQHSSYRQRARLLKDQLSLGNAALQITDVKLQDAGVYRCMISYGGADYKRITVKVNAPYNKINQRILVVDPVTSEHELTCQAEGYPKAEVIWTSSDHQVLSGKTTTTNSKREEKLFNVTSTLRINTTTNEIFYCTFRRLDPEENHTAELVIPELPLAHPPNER

IC50 [1]: 2.93 nM
B1: 788-hIgG1 (chimeric PAL788) (antibody, V domains shown)
VH: QVQLQQPGAELVKPGASVKLSCKASGYTFTSNWMNWVKQRPGRGLEWIGRIHPSDSETHYHQKFKSKATLTVDKSSSTAYIQLSSLTSEDSAVYYCAHSSGDYGRDYWGQGTTLTVSS
VL: NIVLTQSPASLAVSLGQRATISCRASESVDSYGNSFMHWYQQKPGQPPKLLIYLASNLQSGVPARFSGSGSRTDFTLTIDPVEADDAATYYCQQNNEDPWTFGGGTKLEIK

IC50 [1]: 1.58 nM
IC50 [2]: 1.57 nM
B2: 769-hIgG1 (chimeric PAL769) (antibody, V domains shown)
VH: EVQLQESGAELVKPGASVTLSCTASGFNIKDTYMHWVKQRPEQGLEWIGRIDPANDNTKYDPKFQDKATITADTSSDTAYLRLSSLTSEDTAVYYCAREGYGGSYGEGYWGQGTTLTVSS
VL: SIVMTQTPKFLLVSAGDRVTITCKASQSVSNDVIWYQQKPGQSPKLLIYYASIRFTGVPDRFAGSGYGTDFTFTINTVQAEDLAVYFCQQDYNSPWTFGGGTKLEIK

IC50 [3]: 0.6 nM
B3: PAL771.2 (antibody, V domains shown)
VH: EVQLQESGAELVKPGASVKLSCTASGFNIKDTYMHWVKQRPEQGLEWIGRIDPANGNTKYDPKFPGKATITADTSSNTAYLQLSSLTSEDAAVYYCARPFNYRFYDVYYFDYWGQGTTLTVST
VL: QIVLTQSPAIMSASPGEKVTMTCSASSSVSYMYWYQQKPGSSPRLLIYDTSNLASGVPLRFSGSGSGTSYSLTLSRMEAEDAATYYCQQWSTYPLTFGAGTKLELK

IC50 [2]: 1.44 nM
B4: h769-tm2 (humanized 769-hIgG1 variant) (antibody, V domains shown)
VH: EVQLVQSGAEVKKPGATVKISCKVSGFNIKDTYMHWVQQAPGKGLEWMGLIDPANDNTIYAEKFQGRVTITADTSTDTAYMELSSLRSEDTAVYYCAREGYGGSYGEGYWGQGTLVTVSS
VL: EIVMTQSPPTLSLSPGERVTLSCRASQSVSNDLSWYQQKPGQAPRLLIYYASIRFTGIPARFSGSGYGTDFTLTISSLQPEDFAVYYCQQDYNSPWTFGQGTKVEIK

IC50 [2]: 1.29 nM
B5: h769-tm3 (humanized 769-hIgG1 variant) (antibody, V domains shown)
VH: B4 VH
VL: B4 VL with Y67S, Y87F

IC50 [2]: 1.47 nM
B6: h769-IF3 (humanized 769-hIgG1 variant) (antibody, V domains shown)
VH: B4 VH
VL: B4 VL with Y67S

IC50 [1]: 2.01 nM
B7: 767-hIgG1 (chimeric PAL767) (antibody, V domains shown)
VH: EVQLQESGPSLVKPSQTLSLTCSVTGDSITSGYWNWIRKFPGNKLEYMGYISYTGSTYYNPSLKRRISITRDTSKNQYYLQLNSVTTEDTATYYCASQGGWLQAMDYWGQGTSVTVSS
VL: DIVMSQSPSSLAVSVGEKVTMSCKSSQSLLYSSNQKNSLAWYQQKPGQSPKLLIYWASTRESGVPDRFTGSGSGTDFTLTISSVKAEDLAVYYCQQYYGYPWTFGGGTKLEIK

IC50 [1]: 4.64 nM
B8: 752-hIgG1 (chimeric PAL752) (antibody, V domains shown)
VH: EVQLQESGAELARPGASVKLSCKASGHAFTSDSINWVKQRIGQGLEWIGEIYPRSGNPYYNEKFKGKATLTADKSSSTAYMELRSLTSEDSAVYFCATDYYGRYFDVWGTGTTVTVSS
VL: DIQMTQSSFSFSVSLGDRVTIICKASEDIYNRLAWYQQKPGNTPRLLISGATSLETGVPSRFSGSGSGKDYTLSITSLQTEDVATYYCQQYWSTPWTFGGGTKLEIK

IC50 [1]: 1.94 nM
B9: 785-hIgG1 (chimeric PAL785) (antibody, V domains shown)
VH: EVQLQESGPELVKPGTSVKMSCKASGYTFTSYVMHWVKQRPGQGLEWIGYINPYNDGSKYNEKFKGKATLTSDTSSSTAYMELSSLTSEDSAVYYCAKQTLDFWGQGTSVTVST
VL: DIVLTQSPASLAVSLGQRATISCRASESVEFYGTTLMQWYQQKPGQPPKLLIYAASNVESGVPARFSGSGSGTDFSLNIHPVEEGDIGMYFCQQSRKVPYTFGGGTKLEIK

From patent publication US20240067729A1 (published 2024)
